Patent publication US20230048553A1 (AbbVie / Abbott, published 2023)
Numbering of substitutions follows the chain as printed.

B1: AC-264700 (antibody, V domains shown)
VH: EVQLVESGGGLVQPGGSLKLSCAASGFIFSNAVMYWVRQASGKGLEWVARIKTKFNNYATYYADSVKGRFTISRDDSKNMVYLQMNSLKTEDTAVYYCTAGDRNKPFAYWGQGTLVTVSS
VL: ETVVTQSPATLSLSPGERATLSCRASDSVITLLHWFQQKPGQAPRLLIHGASNLESRVPARFSGSGSGTDFTLTISSLEPEDFATYFCQQSWNDPYTFGQGTKLEIKR
B2: AC-277371 (antibody, V domains shown)
VH: B1 VH with S65A
VL: B1 VL with D27G
B3: AC-277357 (fucosylated) (antibody, human IgG1, kappa, V domains shown)
VH: B1 VH with S65A
VL: B1 VL with D27T
notes: AC-264700 with LCDR1 D27→T. Human IgG1 kappa
B4: AC-277483 (antibody, V domains shown)
VH: B1 VH with S65A
VL: B1 VL with S28A
B5: ABBV-514 (antibody, human IgG1, kappa, V domains shown)
VH: B1 VH with S65A
VL: B1 VL with D27T
modifications: afucosylated N-glycan at ASN-300 (EU: ASN-297)
notes: Afucosylated humanized IgG1 kappa made in cells expressing Pseudomonas RMD

Legend:
[1] = molecular target: T1, human CCR8 (chemokine receptor 8) (human, UniProt P51685 1-355); experiment: flow cytometry on huCCR8 Jurkat cells
T1 construct: whole, on cells; the assay field tells which cells; also called huCCR8
T1 sequence (P51685 whole entry): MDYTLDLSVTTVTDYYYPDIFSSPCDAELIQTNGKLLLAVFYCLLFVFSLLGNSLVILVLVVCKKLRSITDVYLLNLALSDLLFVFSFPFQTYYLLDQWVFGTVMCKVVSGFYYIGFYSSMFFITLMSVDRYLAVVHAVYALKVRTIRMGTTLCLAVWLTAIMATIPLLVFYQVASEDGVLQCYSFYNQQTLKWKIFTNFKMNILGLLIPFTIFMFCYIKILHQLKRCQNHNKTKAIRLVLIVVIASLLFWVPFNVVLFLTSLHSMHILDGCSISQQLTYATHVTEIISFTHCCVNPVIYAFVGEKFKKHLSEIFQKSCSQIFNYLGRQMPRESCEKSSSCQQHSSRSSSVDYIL
Description: (§1) The candidate molecules were assessed for binding capacity using flow cytometry through known methods against overexpressed huCCR8 or cyCCR8 on the surface of Jurkat cells. The exemplary antibodies were tested for their ability to self-interact, bind to huCCR8 and cyCCR8, capacity for ADCC using the reporter bioassay, and non-specific binding to HEK293 cells. […] The AC-SINS self-interaction scores for each candidate was <1. At 100 μg/mL, non-specific binding maximums ranged from 97 to 144 GMFI. At 10 μg/mL, non-specific binding maximums ranged from 94-111 GFMI. At 1 μg/mL, non-specific binding maximums ranged from 87-102 GMFI.

cynomolgus CCR8 [2] = molecular target: T2, cynomolgus CCR8 (cynomolgus monkey, UniProt G7NYJ2 1-355); experiment: cell-based or functional assay
T2 sequence (G7NYJ2 entry or part of it): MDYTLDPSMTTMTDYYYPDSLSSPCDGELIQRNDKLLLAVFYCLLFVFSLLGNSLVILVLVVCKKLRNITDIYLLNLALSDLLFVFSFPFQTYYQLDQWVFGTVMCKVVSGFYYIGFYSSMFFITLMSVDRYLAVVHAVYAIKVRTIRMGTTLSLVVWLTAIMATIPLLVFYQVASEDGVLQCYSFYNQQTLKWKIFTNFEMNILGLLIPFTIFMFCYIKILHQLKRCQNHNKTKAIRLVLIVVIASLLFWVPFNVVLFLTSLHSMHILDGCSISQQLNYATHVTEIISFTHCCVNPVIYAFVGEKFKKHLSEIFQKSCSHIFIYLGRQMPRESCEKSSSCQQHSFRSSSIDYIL

[3] = molecular target: T1, human CCR8 (chemokine receptor 8); experiment: cell-based or functional assay
cynomolgus CCR8 [4] = molecular target: T2, cynomolgus CCR8; experiment: flow cytometry on cyCCR8 Jurkat cells
Description: as §1

mouse CCR8 = molecular target: T3, mouse CCR8 (mouse, UniProt P56484 1-353, limits assumed); experiment: not told
T3 sequence (looked up): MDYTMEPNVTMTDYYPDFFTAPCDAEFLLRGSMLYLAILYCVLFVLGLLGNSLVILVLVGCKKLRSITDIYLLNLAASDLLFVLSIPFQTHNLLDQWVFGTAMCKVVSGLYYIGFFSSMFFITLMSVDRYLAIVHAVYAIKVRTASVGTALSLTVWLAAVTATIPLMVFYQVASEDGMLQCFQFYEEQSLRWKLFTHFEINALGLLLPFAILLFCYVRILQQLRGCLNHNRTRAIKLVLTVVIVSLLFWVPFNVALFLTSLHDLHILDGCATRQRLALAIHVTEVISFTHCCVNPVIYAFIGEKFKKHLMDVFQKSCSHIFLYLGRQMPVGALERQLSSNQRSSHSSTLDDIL

rat CCR8 = molecular target: T4, rat CCR8 (rat, UniProt D4ADE0 1-353); experiment: not told
T4 sequence: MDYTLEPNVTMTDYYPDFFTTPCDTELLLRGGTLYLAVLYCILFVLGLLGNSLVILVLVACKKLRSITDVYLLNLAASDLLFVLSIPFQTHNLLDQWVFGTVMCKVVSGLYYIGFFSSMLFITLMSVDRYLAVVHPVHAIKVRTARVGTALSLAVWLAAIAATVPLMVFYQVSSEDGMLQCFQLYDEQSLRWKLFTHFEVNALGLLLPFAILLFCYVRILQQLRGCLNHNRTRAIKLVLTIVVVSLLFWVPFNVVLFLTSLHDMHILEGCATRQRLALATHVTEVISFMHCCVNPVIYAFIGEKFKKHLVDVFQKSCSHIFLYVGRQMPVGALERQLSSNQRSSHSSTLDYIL

rabbit CCR8 = molecular target: T5, rabbit CCR8 (rabbit, UniProt G1T2B2 1-355); experiment: not told
T5 sequence: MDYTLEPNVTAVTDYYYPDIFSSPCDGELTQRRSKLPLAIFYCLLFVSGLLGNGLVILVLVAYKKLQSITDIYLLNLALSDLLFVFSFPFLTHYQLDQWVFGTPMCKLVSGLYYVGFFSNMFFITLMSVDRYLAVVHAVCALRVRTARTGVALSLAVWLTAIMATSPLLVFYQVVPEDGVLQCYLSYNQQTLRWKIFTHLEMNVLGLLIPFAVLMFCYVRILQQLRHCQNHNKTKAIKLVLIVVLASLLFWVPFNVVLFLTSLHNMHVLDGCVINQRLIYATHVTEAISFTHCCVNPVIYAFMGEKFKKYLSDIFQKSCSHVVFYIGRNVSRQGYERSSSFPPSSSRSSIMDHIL

[5] = molecular target: T1, human CCR8 (chemokine receptor 8); experiment: cell-based or functional assay; remark: listed apart in the source

Binder	EC50 [1]	ADCC reporter cyCCR8 EC50 (cynomolgus CCR8 [2])	ADCC reporter cyCCR8 Max Fold Induction (cynomolgus CCR8 [2])	ADCC reporter huCCR8 EC50 [3]	ADCC reporter huCCR8 Max Fold Induction [3]	EC50 (cynomolgus CCR8 [4])	binding result (mouse CCR8)	binding result (rat CCR8)	binding result (rabbit CCR8)	EC50 of CCL1 blockade (CCR8 beta-arrestin reporter assay) [5]
B1	2.33 nM	0.79 nM	12 fold	0.12 nM	12.8 fold	5.27 nM				
B2	1.87 nM	0.57 nM	11.7 fold	0.05 nM	12.7 fold	4.83 nM				
B3	1.51 nM	0.75 nM	12.3 fold	0.1 nM	15.7 fold	2.37 nM				
B4	2.9 nM	1.19 nM	10 fold	0.07 nM	13.6 fold	5.93 nM				
B5							no binding	no binding	no binding	23.1 µg/mL
